Our source for the protein production values is a protein production outcome set (Wang et al. 2014).

A short description of this data set: label from the status in PepcDB records.
Consider “MVKPMHLFAVVDALEQAQQFQQVLASRDVSTELVQIEQLNARFLRHHPELALCVDLDGLWLSANGMKMQPDWQAEIPRLKRASLKSEMIARACQINEQPSLIDATAGLGHDSLLMAYLGAHVTLVERHPVLFTLLEDAKSKAENDPFLSKYMQRIHLIFQDAHYYLQQCNQDDRKVDVIYLDPMFPQRDQHHQVIKKQAQVKKQMQLLHLLLPEDGEMDLGDQLLPLAQQIASRVVVKRPKHAVFLNEQQPDHQWQGDACRFDAYFQISMLEHHHHHH”, for which the protein production result is recorded as “failed”. Consider “MPKPGILKSKSMFCVIYRSSKRDQTYLYVEKKDDFSRVPEELMKGFGQPQLAMILPLDGRKKLVNADIEKVKQALTEQGYYLQLPPPPEDLLKQHLSVMGQKTDDTNK”, for which the protein production entry is given as “not failed”. “MNYSHPISLKTLVQEDDIGVNAPIIHQSVIARLTAGLYPLYQSKKIPFEPLPETMLTEGYSSPVPDVLLYDHQTEEAKVIIEVCQNSGLKHDTSKIVKLIEDNAYGILEGFVFNYKTQQWLRYRLGDGGVATNSSFSEVLQVDLNTFV”: the protein production result is listed as “not failed”. “MSKRANKLVIVTEKVLLKKVAKIIEEAGATGYTVVDTGGKGSRNVRSTGKPNTSDTDSNVKFEVLTENREMAEKIADQVAIKFFTDYAGIIYICEAEVLYGRTFCGPDGC”: the protein production result is “not failed”. For the sequence “VRGFLIVGNKAFTQPFSLNDLPGAGRMDVLCRCTSQALFISHGIRRDVEVYLLLLGPPSPPKSILIKGDEVRRMSPDERNVAGHIKKALAVECGKSWKKVHSGVYVSRKGLEELIEELSEKYSIIYLKEDGVDISNAQLPPNPLFVIGDHEGLTEEQEKVVERYAALKLSLSPLSLLAEQCVVIAHHHLDRLQF”, the protein production entry is given as “not failed”. Next, “MNRPGVLTSPGSIPLRPRRRDPSGPASARARVEARQRVGKILVVAGWIVSLAGVAIYCVTSFAAGADADLAAILIDGAIPAARAGLAVVGVGTLTWVVGSILHLNASLDAADAERDGPAEG”: “failed”; “MSSSKKPSQQPSQINLSAEIGQFISLNQEAFAELLTFIDFAEKFTLGLVEVNFPPDVDLLIAALQNNPDCENIQFFILKCVDANLRFLRDEIIKRLSEIELESNKKLVLIVRGLENAIGVFGEYPPVLQDLNFVRDAYKRTVPHPILFILPDYAITRLAKFAPDFWAWRSGIFRFKTPAITKENAINQVKNSEILDRIEPPEKQERIDLLHRLLMEEKPTGQQVTDGNLRSYSNILHQLGQAYLSHIKPEKAREYLEEAERISENLQDELFQAEVINTLGDTYSLQRQFNLGIKYYEKSLLIARRLENRLSEINALFKLGNAYLDLRQFSQAAKFYQQCLDIEQEIGDRYSQASTYHELGRVAQNLREWEQAKTYYQQALDITIEFGDRYNQASTYHQLGMVAQKLRKWEQAKTYYQQALDITIEFGDRYNQARIYHQLAIVAQNLREWQQAKTYYQQALDLKIEFGDRYNQASTYHQLGMVAQNLREWEQAKTYYQQALDITIEFGDRYSQASTYHQLGIVAQNLREWEQAKTYYQQALDLKIEFGDRYSQASTYGQLGTLAEAQENYVEARLNLQTALEIYVEYKDEHWAGIARKILDELPE”: “failed”. Next, “LGNAMNIPAPIRIEAFDNSNIMGTNPVSAMVVFIDGRPAKNEYRKYKIKTVQGPDDYASMREVIYRRYSRVLKEGLPFPDLILIDGGKGQVDVAKDVLANQLGVDIPVAGLAKNDKHKTSELLFGPNLEVVPLERNSQEFFLLQRIQDEVHRFAI”: “not failed”; “MEELQEPLRGQLRLCFTQAARTSLLLLRLNDAALRALQECQRQQVRPVIAFQGHRGYLRLPGPGWSCLFSFIVSQCCQEGAGGSLDLVCQRFLRSGPNSLHCLGSLRERLIIWAAMDSIPAPSSVQGHNLTEDARHPESWQNTGGYSEGDAVSQPQMALEEVSVSDPLASNQGQSLPGSSREHMAQWEVRSQTHVPNREPVQALPSSASRKRLDKKRSVPVATVELEEKRFRTLPLVPSPLQGLTNQDLQEGEDWEQEDEDMDPRLEHSSSVQEDSESPSPEDIPDYLLQYRAIHSAEQQHAYEQDFETDYAEYRILHARVGTASQRFIELGAEIKRVRRGTPEYKVLEDKIIQEYKKFRKQYPSYREEKRRCEYLHQKLSHIKGLILEFEEKNRGS”: “failed”. For the sequence “MTQMRFTEEDFNTFTIEGLDARMEVLKETVRPKLTALGEHFAPTLSALTGDEMFPHVAKHARRSVNPPADSWVAFANSKRGYKKLPHFQIGLWESHVFVWFAIIYESPIKEEYGKLLEVNQETITKNIPDSFVWSADHTKPGVHKQSEMDKEQLKTLFERLQTVKKAELLCGIQLQKEEVLNMNNQEFLQRIDDAFKQLAFLYRLTQKVTQALEHHHHHH”, the protein production entry is reported as “not failed”. In the case of “MAASSLATQPAMKLAPDDLDSITATTLGHYQQVAEDFREGTRDHDVSQNIDALLRHIQGSAPFTVLDFGCGPGRDLQAFTRLGHVAIGLDGCERFAQMAREDSGCEVWQQDFLKLDLPAERFDGIFANAVLFHIPRQELPRVLKQLHASLKDGGVLFSSNPRGDNQEGWNGPRYGAYHDLAAWQALLTDAGFVELEHYYRPAGLPREQQPWLASVWRKA”, the protein production entry is “failed”. Under “MSEFEGWIKWLEPVFLLWKPEDPGYERPAYRDWTKEEDEPKYSPEKELALLDKQILASDGFDIDFTHFRCVFNYHLAYLDSHEFVDEPETTRDLLERLSRKALDDYNQESVVKANFHFCCAIMFLITFEVVDPYDNLIKLFQTRVRHAEDIVTEYVFCRPKPNQGVECIGVKNNDGKDVQTNVKEQEIPCMYGWFLRVITITFTLQIGVGASICHKE” stands “failed”; under “MGILSGNPQDEPLHYGEVFSTWTYLSTNNGLINGYRSFINHTGDEDLKNLIDEAIQAMQDENHQLEELLRSNGVGLPPAPPDRPAARLDDIPVGARFNDPEISATISMDVAKGLVTCSQIIGQSIREDVALMFSQFHMAKVQFGGKMLKLNKNKGWLIPPPLHSDRPIKE”, “not failed”. Under “MGHHHHHHSHMNSCILQATVVEAPQLRYTQDNQTPVAEMVVQFPGLSSKDAPARLKVVGWGAVAQELQDRCRLNDEVVLEGRLRINSLLKPDGNREKQTELTVTRVHH” stands “not failed”. “MGLRMSESAKPYFAMVCLQFGYAGMNLVTKTVLDRGMSHYVLVAYRNAFATAAIAPFALLSERKVRSKMTFPIFMRIFLLALLGPVIDQNLYYIGLKLTSPTFSSAVSNIVPAITIILATLFRMEKVEMRKVRCLVKVMGTLVTVVGSILMIFYKGPFINFFRSHLTAASSPPTADYLKAAVFLLLASLSWASFFVLQAATLKKYSAHLSMSTMVCFMGTLQSLALAFVMEHNPSALNIGFDMNLLASAYAGIMSSSIAYYVQGLMMQRKGPVFVTAFNPLIVVIVSIMSFFVLGQGIYLGGYVNNNRVIGVVVLMVGVYAVLWGKHVDDDGEETRHEDNVVAVKCCSGNNGLTIMPKIDEADEEDVETGKATSEKESSVPEVVVVVFCSENVHSVSRPN”: the protein production result is recorded as “failed”. Next, “MPTPGTGSVPELQLVPFQLGHFPILQRWFATEKELVQWAGPALRHPLSLEQMHEDLAESRRRPPLRLLWSACRDDQVIGHCQLLFDRRNGVVRLARIVLAPSARGQGLGLPMLEALLAEAFADADIERVELNVYDWNAAARHLYRRAGFREEGLRRSATRVGRERWNVVLMGLLRQEWAAGGAGND”: “not failed”.

Consider “MAEEVRQELSALAAIFCGPNEWEMLSCSETDGAVFRIHTTAEGLVGEDVPLELAFHLPVGYPLCLPGISVTSEHLTRAQCVTAKEKLLGEARKLVSEPMVHELVLWIQQNLRLVLSQPETVSSHEKCTLPESATGDDGPWMTLLRLDHMRARTKYVKAVEKWASELRLTGRLMFMGKLILILLQGDRSNIKEYLILQKTSKVDVDSSGKKCKEKMISVLSETKVQTEHKRFLAFEVKEYSTLEELQKEFGAAGLGELFSECVLGLVK”, for which the protein production entry is on record as “failed”. With “MMNRVILVGRLTKDPDLRYTPNGVAVATFTLAVNRAFANQQGEREADFINCVIWRKQAENVANYLKKGSLAGVDGRLQTRNYEGQDGKRVYVTEVLAESVQFLEPRNGGGEQRGSFNQQPSGAGFGNQSSNPFGQSSNSGNQGNQGNSGFTKNDDPFSNVGQPIDISDDDLPF”, the protein production result was “failed”. Under “MKTTLLKTLTPELHLVQHNDIPVPSLKTCGWNTKNFPCKGHSLSVGXPQNAKQDVLWLSEVEPFKNGNAIRGGVPICYPWFGGVKQPAHGTARIRLWQLSHYYISVHKVRLEFELFSDLNIIEAKVSMVFTDKCHLTFTHYGEESAQAALHTYFNIGDINQVEVQGLPETCFNSLNQQQENVPSPRHISENVDCIYSAENMQNQILDKSFNRTIALHHHNASQFVLWNPWHKKTSGMSETGYQKMLCLETARIHHLLEFGESLSVEISLKG” stands “not failed”; under “MTKNPRTLYEKIWDAHIVERREDGSALIYIDRHLVHEVTSPQAFEALRQAGRPLRRPDRTLAVPDHNVPTTARVDSEGHLLPIADPQSAKQLAALAKNAPEFGVRYISATDPEQGIVHVVGPEQGFTLPGTTLVCGDSHTAAHGALGALAFGIGTSEVEHVMATQTLILTPAKTMEVRVEGKLSPDVSAKDLILHIIHSLGTAGGTGYAIEYTGEAIRNLSIEERLTVSNMSIEAGARTGLIAADEKTFAYLFGRPMAPKGADWEKAVQWWKSLATDKGAVYDKTVIIKAEDVQPSVTWGTSPEDVVPITGVVPDPASFADPAKQAAARRSLEYMGLEPGQKMEGLAVENVFIGSCTNSRIEDLRAAASVVWGRHVADNVKQALVVPGSGLVKRQAEAEGLDEVFKAAGFEWREPGCSMCLAMNPDKVPAGERCASTSNRNFVGRQGPGARTHLVSPAMAAAAAVTGHLTDLRHLEPVKMGEKA”, “failed”; under “MDASTSFAILPSNVKQKTAFPRKINQVKTASWANNCLTGTLDVGHFSCYFVNEKIARVTVNPFGEADLTPSIAAINDTEKQAAVFTETNDHYELQFADKKLIVSKNPFQIIMKQAGKTIFQTEGLAINRDKEHQISIQSKPGTAIFGLGEKTGALNKAGSIISMWNTDVYSPHNKDTVELYQSIPFMIADTEETTYGLFYDNSHRTEFDFQSFEEMYTILAEGGQANLYVIFGEDVKEVVANYTNLTGKTPLPPKWSLGYHQSRYSYTSEEEVERIANTFKEKEIPLDCVFMDIHYMDDFRVFTFNPDTFPNGPELIARLREQNIDVVPIVDPGIKKDVNYSVYQEGIKHHYFCRKLEGAIYYGDVWPGVSAFPDFLSTTVQRWWGDLHQFYTDLGIRGIWNDMNEPSVFNESKTMDLDVVHNMDGKNVTHKEAHNLYGLYMSKATFEGLKRLVPNERPFSLTRAGYAGVQRYSAVWTGDNRSHWEHLEMSLPMIMNLGLSGVAFTGADVGGFSSDCTKEMLIRWTQAGAFLPYFRNHCVQDSIYQEPWAFGLDAEKIVKKYIEMRYTFLPYIYTEFQKTAENGLPIVRPLYMEFKEERDLIQVNDQFMLGENILVAPIVREGQVKRLVRLPKGTWFNYWTKEQVEGGDYIIADAPIDVMPIYIKAGTILPLGTSVQNTKEAQDLALEIYLDNDEASGYVYNDDGKSYQYESGKISKTAFTATFKNGEVQINGDHHGEENLQQKVTTIEVFGKKIDKITRAGI”, “failed”. Next, “MYPKKQACCPAMVMPYTLHAERTRVEVIPERGGLISRWQWQGHELLYLDRERFANPQFSVRGGIPLLFPICGNLPEDAFHDNGQTYHLKQHGFARDLPWQVLDQRQHVLKLGLQDTPATRQVYPFAFHLTLTYTLAADALAIALEVANPGDIPLPFSFGLHPYFAVADKHQLQFDLPIHAMVDQKTQQPLTFSGTFDWSAAELDWACRPLTGQVARVFDLQQQYCLTLRYDTAFTTLVFWTVQGKPYYCLEPWTAPRNALNTGVDLLHVPPQKHLTLGVEIAVAPL”: “failed”.
